Results as given in IntAct's records for PubMed 19513107.

B1: Calcium-binding protein 39 (Homo sapiens), Q9Y376 (parent)
chain: MPFPFGKSHKSPADIVKNLKESMAVLEKQDISDKKAEKATEEVSKNLVAMKEILYGTNEKEPQTEAVAQLAQELYNSGLLSTLVADLQLIDFEGKKDVAQIFNNILRRQIGTRTPTVEYICTQQNILFMLLKGYESPEIALNCGIMLRECIRHEPLAKIILWSEQFYDFFRYVEMSTFDIASDAFATFKDLLTRHKLLSAEFLEQHYDRFFSEYEKLLHSENYVTKRQSLKLLGELLLDRHNFTIMTKYISKPENLKLMMNLLRDKSRNIQFEAFHVFKVFVANPNKTQPILDILLKNQAKLIEFLSKFQNDRTEDEQFNDEKTYLVKQIRDLKRPAQQEA
partner: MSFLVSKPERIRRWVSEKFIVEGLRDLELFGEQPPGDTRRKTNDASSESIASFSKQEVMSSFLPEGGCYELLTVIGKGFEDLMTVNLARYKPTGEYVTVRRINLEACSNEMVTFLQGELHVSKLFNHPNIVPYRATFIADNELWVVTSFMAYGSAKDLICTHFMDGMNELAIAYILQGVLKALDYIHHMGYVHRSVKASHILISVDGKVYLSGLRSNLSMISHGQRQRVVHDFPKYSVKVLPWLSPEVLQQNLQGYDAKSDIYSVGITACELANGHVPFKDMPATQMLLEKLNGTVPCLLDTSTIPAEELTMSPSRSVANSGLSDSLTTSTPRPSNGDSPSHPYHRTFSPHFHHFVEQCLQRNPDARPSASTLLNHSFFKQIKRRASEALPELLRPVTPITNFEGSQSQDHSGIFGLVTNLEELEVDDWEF
B2: Calcium-binding protein 39 (Homo sapiens), Q9Y376 (parent)
chain: B1 chain
partner: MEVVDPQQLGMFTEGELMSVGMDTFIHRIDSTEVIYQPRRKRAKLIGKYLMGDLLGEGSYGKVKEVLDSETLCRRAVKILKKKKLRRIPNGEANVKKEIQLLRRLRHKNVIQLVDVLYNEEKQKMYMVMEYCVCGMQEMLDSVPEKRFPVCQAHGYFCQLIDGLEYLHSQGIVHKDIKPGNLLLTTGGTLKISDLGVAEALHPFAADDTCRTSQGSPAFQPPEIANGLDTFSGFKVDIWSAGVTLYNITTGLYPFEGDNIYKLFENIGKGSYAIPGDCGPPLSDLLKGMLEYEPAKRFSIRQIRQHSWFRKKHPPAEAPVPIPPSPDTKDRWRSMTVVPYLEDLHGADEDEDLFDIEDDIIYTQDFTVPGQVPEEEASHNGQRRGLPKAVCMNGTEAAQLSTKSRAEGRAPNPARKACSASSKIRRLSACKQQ
B3: STE20-related kinase adapter protein alpha (Homo sapiens), Q7RTN6-1 (parent)
chain: B1 partner
partner: B2 partner

Variants of: B1
Settings: with STRADA

Effect of a mutation on the interaction, disrupting interaction:
MPFPFGKSHKSPADIVKNLKESMAVLEKQDISDKKAEKATEEVSKNLVAMKEILYGTNEKEPQTEAVAQLAQELYNSGLLSTLVADLQLIDAEGKKDVAQIFNNILRRQIGTRTPTVEYICTQQNILFMLLKGYESPEIALNCGIMLRECIRHEPLAKIILWSEQFYDFFRYVEMSTFDIASDAFATFKDLLTRHKLLSAEFLEQHYDRFFSEYEKLLHSENYVTKRQSLKLLGELLLDRHNFTIMTKYISKPENLKLMMNLLRDKSRNIQFEAFHVFKVFVANPNKTQPILDILLKNQAKLIEFLSKFQNDRTEDEQFNDEKTYLVKQIRDLKRPAQQEA [F92A]
MPFPFGKSHKSPADIVKNLKESMAVLEKQDISDKKAEKATEEVSKNLVAMKEILYGTNEKEPQTEAVAQLAQELYNSGLLSTLVADLQLIDFEGKKDVAQIFNNILARQIGTRTPTVEYICTQQNILFMLLKGYESPEIALNCGIMLRECIRHEPLAKIILWSEQFYDFFRYVEMSTFDIASDAFATFKDLLTRHKLLSAEFLEQHYDRFFSEYEKLLHSENYVTKRQSLKLLGELLLDRHNFTIMTKYISKPENLKLMMNLLRDKSRNIQFEAFHVFKVFVANPNKTQPILDILLKNQAKLIEFLSKFQNDRTEDEQFNDEKTYLVKQIRDLKRPAQQEA [R107A]
MPFPFGKSHKSPADIVKNLKESMAVLEKQDISDKKAEKATEEVSKNLVAMKEILYGTNEKEPQTEAVAQLAQELYNSGLLSTLVADLQLIDFEGKKDVAQIFNNILRRQIGTRTPTVEYICTQQNILFMLLKGYESPEIALNCGIMLRECIRHEPLAKIILWSEQFYDFFRYVEMSTFDIASDAFATFKDLLTRHKLLSAEFLEQHYDRFFSEYEKLLHSENAVTKRQSLKLLGELLLDRHNFTIMTKYISKPENLKLMMNLLRDKSRNIQFEAFHVFKVFVANPNKTQPILDILLKNQAKLIEFLSKFQNDRTEDEQFNDEKTYLVKQIRDLKRPAQQEA [Y223A]
MPFPFGKSHKSPADIVKNLKESMAVLEKQDISDKKAEKATEEVSKNLVAMKEILYGTNEKEPQTEAVAQLAQELYNSGLLSTLVADLQLIDFEGKADVAQIFNNILRRQIGTRTPTVEYICTQQNILFMLLKGYESPEIALNCGIMLRECIRHEPLAKIILWSEQFYDFFRYVEMSTFDIASDAFATFKDLLTRHKLLSAEFLEQHYDRFFSEYEKLLHSENYVTKRQSLKLLGELLLDRHNFTIMTKYISKPENLKLMMNLLRDKSRNIQFEAFHVFKVFVANPNKTQPILDILLKNQAKLIEFLSKFQNDRTEDEQFNDEKTYLVKQIRDLKRPAQQEA [K96A]
MPFPFGKSHKSPADIVKNLKESMAVLEKQDISDKKAEKATEEVSKNLVAMKEILYGTNEKEPQTEAVAQLAQELYNSGLLSTLVADLQLIDFEGKKDVAQIFNNILRRQIGTRTPTVEYICTQQNILFMLLKGYESPEIALNCGIMLRECIRHEPLAKIILWSEQFYDFFRYVEMSTFDIASDAFATFKDLLTRHKLLSAEFLEQHYDRFFSEYEKLLHSENYVTKRASLKLLGELLLDRHNFTIMTKYISKPENLKLMMNLLRDKSRNIQFEAFHVFKVFVANPNKTQPILDILLKNQAKLIEFLSKFQNDRTEDEQFNDEKTYLVKQIRDLKRPAQQEA [Q228A]
MPFPFGKSHKSPADIVKNLKESMAVLEKQDISDKKAEKATEEVSKNLVAMKEILYGTNEKEPQTEAVAQLAQELYNSGLLSTLVADLQLIDFEGKKDVAQIFNNILRRQIGTRTPTVEYICTQQNILFMLLKGYESPEIALNCGIMLRECIRHEPLAKIILWSEQFYDFFRYVEMSTADIASDAFATFKDLLTRHKLLSAEFLEQHYDRFFSEYEKLLHSENYVTKRQSLKLLGELLLDRHNFTIMTKYISKPENLKLMMNLLRDKSRNIQFEAFHVFKVFVANPNKTQPILDILLKNQAKLIEFLSKFQNDRTEDEQFNDEKTYLVKQIRDLKRPAQQEA [F178A]
MPFPFGKSHKSPADIVKNLKESMAVLEKQDISDKKAEKATEEVSKNLVAMKEILYGTNEKEPQTEAVAQLAQELYNSGLLSTLVADLQLIDFEGKKDVAQIFNNILRRQIGTRTPTVEYICTQQNILFMLLKGYESPEIALNCGIMLRECIRHEPLAKIILWSEQFYDFFRYVEMSTFDIASDAFATFKDLLTRHKLLSAEFLEQHYDRFFSEYEKLLHSENYVTKRQSLKLLGELLLDRHNFTIMTKYISKPENLKLMANLLRDKSRNIQFEAFHVFKVFVANPNKTQPILDILLKNQAKLIEFLSKFQNDRTEDEQFNDEKTYLVKQIRDLKRPAQQEA [M260A]
MPFPFGKSHKSPADIVKNLKESMAVLEKQDISDKKAEKATEEVSKNLVAMKEILYGTNEKEPQTEAVAQLAQELYNSGLLSTLVADLQLIDFEGKKDVAQIFNNILRRQIGTRTPTVEYICTQQNILFMLLKGYESPEIALNCGAMLRECIRHEPLAKIILWSEQFYDFFRYVEMSTFDIASDAFATFKDLLTRHKLLSAEFLEQHYDRFFSEYEKLLHSENYVTKRQSLKLLGELLLDRHNFTIMTKYISKPENLKLMMNLLRDKSRNIQFEAFHVFKVFVANPNKTQPILDILLKNQAKLIEFLSKFQNDRTEDEQFNDEKTYLVKQIRDLKRPAQQEA [I145A]
MPFPFGKSHKSPADIVKNLKESMAVLEKQDISDKKAEKATEEVSKNLVAMKEILYGTNEKEPQTEAVAQLAQELYNSGLLSTLVADLQLIDFEGKKDVAQIFNNILRRQIGTRTPTVEYICTQQNILFMLLKGYESPEIALNCGIMLRECIRHEPLAKIILWSEQFYDFFRYVEMSTFDIAADAFATFKDLLTRHKLLSAEFLEQHYDRFFSEYEKLLHSENYVTKRQSLKLLGELLLDRHNFTIMTKYISKPENLKLMMNLLRDKSRNIQFEAFHVFKVFVANPNKTQPILDILLKNQAKLIEFLSKFQNDRTEDEQFNDEKTYLVKQIRDLKRPAQQEA [S182A]
MPFPFGKSHKSPADIVKNLKESMAVLEKQDISDKKAEKATEEVSKNLVAMKEILYGTNEKEPQTEAVAQLAQELYNSGLLSTLVADLQLIDFAGKKDVAQIFNNILRRQIGTRTPTVEYICTQQNILFMLLKGYESPEIALNCGIMLRECIRHEPLAKIILWSEQFYDFFRYVEMSTFDIASDAFATFKDLLTRHKLLSAEFLEQHYDRFFSEYEKLLHSENYVTKRQSLKLLGELLLDRHNFTIMTKYISKPENLKLMMNLLRDKSRNIQFEAFHVFKVFVANPNKTQPILDILLKNQAKLIEFLSKFQNDRTEDEQFNDEKTYLVKQIRDLKRPAQQEA [E93A]

Variants of: B1
Settings: with STRADA
Remark: another data set of the same source

Effect of a mutation on the interaction, disrupting interaction:
MPFPFGKSHKSPADIVKNLKESMAVLEKQDISDKKAEKATEEVSKNLVAMKEILYGTNEKEPQTEAVAQLAQELYNSGLLSTLVADLQLIDFEGKKDVAQIFNNILRRQIGTRTPTVEYICTQQNILFMLLKGYESPEIALNCGIMLRECIRHEPLAKIILWSEQFYDFFRYVEMSTFDIASDAFATFKDLLTRHKLLSAEFLEQHYDRFFSEYEKLLHSENYVTKAQSLKLLGELLLDRHNFTIMTKYISKPENLKLMMNLLRDKSRNIQFEAFHVFKVFVANPNKTQPILDILLKNQAKLIEFLSKFQNDRTEDEQFNDEKTYLVKQIRDLKRPAQQEA [R227A]

Variants of: B1
Settings: with STRADA
Remark: another data set of the same source

Effect of a mutation on the interaction, disrupting interaction:
MPFPFGKSHKSPADIVKNLKESMAVLEKQDISDKKAEKATEEVSKNLVAMKEILYGTNEKEPQTEAVAQLAQELYNSGLLSTLVADLQLIDFEGKKDVAQIFNNILRRQIGTRTPTVEYICTQQNILFMLLKGYESPEIALNCGIMLRECIRHEPLAKIILWSEQFYDFFRYVEMSTFDIASDAFATFKDLLTRHKLLSAEFLEQHYDRFFSEYEKLLHSENYVTKAQSLKLLGELLLDRHNFTIMTKYISKPENLKLMANLLRDKSRNIQFEAFHVFKVFVANPNKTQPILDILLKNQAKLIEFLSKFQNDRTEDEQFNDEKTYLVKQIRDLKRPAQQEA [R227A;M260A]

Variants of: B2
Settings: with stk11_human STK11, Q15831

Effect of a mutation on the interaction, disrupting interaction:
MPFPFGKSHKSPADIVKNLKESMAVLEKQDISDKKAEKATEEVSKNLVAMKEILYGTNEKEPQTEAVAQLAQELYNSGLLSTLVADLQLIDFEGKKDVAQIFNNILRRQIGTRTPTVEYICTQQNILFMLLKGYESPEIALNCGIMLRECIRHEPLAKIILWSEQFYDFFRYVEMSTFDIASDAFATFKDLLTRHKLLSAEFLEQHYDRFFSEYEKLLHSENYVTKAQSLKLLGELLLDAHNFTIMTKYISKPENLKLMMNLLRDKSRNIQFEAFHVFKVFVANPNKTQPILDILLKNQAKLIEFLSKFQNDRTEDEQFNDEKTYLVKQIRDLKRPAQQEA [R227A;R240A]
MPFPFGKSHKSPADIVKNLKESMAVLEKQDISDKKAEKATEEVSKNLVAMKEILYGTNEKEPQTEAVAQLAQELYNSGLLSTLVADLQLIDFEGKKDVAQIFNNILRRQIGTRTPTVEYICTQQNILFMLLKGYESPEIALNCGIMLRECIRHEPLAKIILWSEQFYDFFRYVEMSTFDIASDAFATFKDLLTRHKLLSAEFLEQHYDRFFSEYEKLLHSENYVTKAQSLKLLGELLLDAHNFTIMTKYISKPENLKLMANLLRDKSRNIQFEAFHVFKVFVANPNKTQPILDILLKNQAKLIEFLSKFQNDRTEDEQFNDEKTYLVKQIRDLKRPAQQEA [R227A;R240A;M260A]

Variants of: B3
Settings: with stk11_human STK11, Q15831

Effect of a mutation on the interaction, disrupting interaction:
MSFLVSKPERIRRWVSEKFIVEGLRDLELFGEQPPGDTRRKTNDASSESIASFSKQEVMSSFLPEGGCYELLTVIDKDFEDLMTVNLARYKPTGEYVTVRRINLEACSNEMVTFLQGELHVSKLFNHPNIVPYRATFIADNELWVVTSFMAYGSAKDLICTHFMDGMNELAIAYILQGVLKALDYIHHMGYVHRSVEASHILISVDGKVYLSGLRSNLSMISHGQRQRVVHDFPKYSVKVLPWLSPEVLQQNLQGYDAKSDIYSVGITACELANGHVPFKDMPATQMLLEKLNGTVPCLLDTSTIPAEELTMSPSRSVANSGLSDSLTTSTPRPSNGDSPSHPYHRTFSPHFHHFVEQCLQRNPDARPSASTLLNHSFFKQIKRRASEALPELLRPVTPITNFEGSQSQDHSGIFGLVTNLEELEVDDWEF [G76D;G78D;K197E]
MSFLVSKPERIRRWVSEKFIVEGLRDLELFGEQPPGDTRRKTNDASSESIASFSKQEVMSSFLPEGGCYELLTVIDKDFEDLMTVNLARYKPTGEYVTVRRINLEACSNEMVTFLQGELHVSKLFNHPNIVPYRATFIADNELWVVTSFMAYGSAKDLICTHFMDGMNELAIAYILQGVLKALDYIHHMGYVHRSVEASHILISVDGKVYLSGLESNLSMISHGQRQRVVHDFPKYSVKVLPWLSPEVLQQNLQGYDAKSDIYSVGITACELANGHVPFKDMPATQMLLEKLNGTVPCLLDTSTIPAEELTMSPSRSVANSGLSDSLTTSTPRPSNGDSPSHPYHRTFSPHFHHFVEQCLQRNPDARPSASTLLNHSFFKQIKRRASEALPELLRPVTPITNFEGSQSQDHSGIFGLVTNLEELEVDDWEF [G76D;G78D;K197E;R215E]
